Among the data in patent US20150079657, “TARGETED HISTONE ACETYLATION” (SIGMA-ALDRICH CO. LLC, published 2015) are activity values, retold here.

One data set concerns the target ZF6961 (ZF(PEDF))-p300 (Artificial Sequence). In words: cell_activity; PEDF mRNA activation in HEK293, 72 h. The note with it: tags: fusion to human p300 HAT domain aa 1284-1673. The procedure:
Expression vectors encoding ZF(PEDF)-p300 or ZF(PEDF)-p65 were transfected into HEK 293 cells. Control cells were transfected with vectors encoding GFP, p65 (no ZF), or p300 (no ZF). Total RNA was isolated 72 hours later, and the levels of PEDF mRNA and cyclophilin A endogenous control mRNA were measured by RT-PCR. The PEDF/cyc ratio was used for normalizing PEDF expression.

Another data set deals with ZF(Oct4+181)-p300 (Artificial Sequence). In words: cell_activity; OCT4 mRNA activation in HEK293, 48 h; H3K18 and H3K27 acetylation also increased by ChIP (FIG. 1). Conditions: tags: C-terminal fusion to human p300 HAT domain aa 1284-1673 (NM_001429). On the procedure: Expression vectors encoding ZF(Oct4+181)-p300 or one of the control fusion proteins described above were transfected into HEK 293 cells. Control cells were transfected with vectors encoding GFP, p65 (no ZF), or p300 (no ZF). After 48 hrs, the cells were harvested and total RNA was isolated. The levels of OCT4 mRNA and cyclophilin A (i.e., PPIA) endogenous control mRNA were measured by real time reverse transcriptase polymerase chain reaction (RT-PCR) (Life Technologies, Carlsbad, Calif.). The OCT4/cyc ratio was used for normalizing OCT4 expression.
Sequence of ZF(Oct4+181)-p300 (Artificial Sequence) (chain, as listed by the source): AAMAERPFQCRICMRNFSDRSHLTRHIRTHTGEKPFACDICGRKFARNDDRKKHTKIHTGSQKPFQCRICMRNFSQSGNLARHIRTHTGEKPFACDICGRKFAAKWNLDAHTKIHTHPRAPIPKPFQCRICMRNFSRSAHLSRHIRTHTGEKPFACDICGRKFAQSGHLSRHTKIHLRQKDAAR

Sequence of ZF6961 (ZF(PEDF))-p300 (Artificial Sequence) (chain, as listed by the source): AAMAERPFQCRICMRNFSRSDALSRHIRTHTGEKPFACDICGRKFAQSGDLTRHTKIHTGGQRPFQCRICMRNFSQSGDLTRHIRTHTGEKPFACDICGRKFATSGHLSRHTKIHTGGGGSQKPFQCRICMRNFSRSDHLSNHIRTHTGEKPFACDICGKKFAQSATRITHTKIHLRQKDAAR

B1: PEDF -92 target site (dsDNA)
DNA 1: GGATGGTGGTGCAGCAGTG
DNA 2: CACTGCTGCACCACCATCC
The molecule B1 registered an activity in the data set with ZF6961 (ZF(PEDF))-p300 of more than 2.5 fold.

B2: OCT4 +181 target site (dsDNA)
DNA 1: GGAGGGCCAGGAATCGGGC
DNA 2: GCCCGATTCCTGGCCCTCC
Consider B2, for which the activity in the data set with ZF(Oct4+181)-p300 is more than 25 fold.
